Measured values: patent US20250043019A1 (Janssen / Centocor, published 2025)
Changes are numbered by the printed parent chain. Names and notes keep the numbering of the source.

T1: human CD20 on the cell surface (human, UniProt P11836 1-297)
T1 construct: whole, on cells; On B-lymphoma lines, primary B cells, K562 CD20 or HEK293 transfectants; also called MS4A1; B-lymphocyte antigen CD20
T1 sequence (looked up): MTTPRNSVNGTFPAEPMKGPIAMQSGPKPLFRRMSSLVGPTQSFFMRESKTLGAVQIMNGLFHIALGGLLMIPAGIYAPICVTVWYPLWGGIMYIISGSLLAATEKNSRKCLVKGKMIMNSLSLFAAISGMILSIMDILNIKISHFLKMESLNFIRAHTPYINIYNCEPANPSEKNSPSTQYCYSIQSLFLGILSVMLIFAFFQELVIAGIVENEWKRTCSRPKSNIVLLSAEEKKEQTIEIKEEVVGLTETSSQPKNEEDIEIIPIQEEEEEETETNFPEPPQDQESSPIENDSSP

T2: cynomolgus monkey CD20 on B cells (cynomolgus monkey, UniProt M4ZHZ6 1-297)
T2 construct: whole, on cells
T2 sequence: T1 sequence (looked up) with S25P, F31L, T51A, A157V, K217R, N226S, I227V, T239V

T3: human CD79b and CD20 co-expressed on the surface of B-lymphoma cell lines or primary B cells (human, UniProt P11836 1-297)
T3 sequence 1: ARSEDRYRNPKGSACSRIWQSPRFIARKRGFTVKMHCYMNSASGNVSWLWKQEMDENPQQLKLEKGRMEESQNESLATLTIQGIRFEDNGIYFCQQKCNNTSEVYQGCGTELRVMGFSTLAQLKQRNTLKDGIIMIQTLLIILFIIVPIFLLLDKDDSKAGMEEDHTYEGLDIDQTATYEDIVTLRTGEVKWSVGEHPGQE
T3 sequence 2: T1 sequence (looked up)

T4: recombinant extracellular domain of human CD79b, long isoform (human, UniProt P40259 29-159)
T4 construct: also called hu CD79b long
T4 sequence: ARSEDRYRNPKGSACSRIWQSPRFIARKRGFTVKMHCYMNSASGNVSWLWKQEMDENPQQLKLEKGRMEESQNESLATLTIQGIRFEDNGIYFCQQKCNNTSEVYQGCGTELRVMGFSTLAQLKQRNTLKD

T5: recombinant extracellular domain of human CD79b, short isoform (human, UniProt P40259 29-159)
T5 chain: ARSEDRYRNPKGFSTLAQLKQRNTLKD

B1: C20B648 anti-CD20 binder (antibody, V domains shown)
VH: QVQLVQSGAEVKKPGSSVKVSCKASGYTFSSYNMHWVRQAPGQGLEWMGAIYPGAGDTSYAQKFQGRVTITADESTSTAYMELSSLRSEDTAVYYCARSNYYGSSGWYFDVWGKGTTVTVSS
VL: EIVLTQSPATLSLSPGERATLSCRASLSVSSMHWYQQKPGQAPRLLIYATSNLASGIPARFSGSGSGTDFTLTISSLEPEDFAVYYCQQWIFNPPTFGGGTKVEIK
B2: C923B74 CD79bxCD20xCD3 trispecific antibody (other)
heavy: QVQLQQSGPGLVKPSQTLSLTCAISGDSVSSNSATWNWIRQSPSRGLEWLGRTYYRSKWYNDYTVSVKSRITINPDTSKNQFSLQLNSVTPEDTAVYYCTRVDIAFDYWGQGTLVTVSSASTKGPSVFPLAPSSKSTSGGTAALGCLVKDYFPEPVTVSWNSGALTSGVHTFPAVLQSSGLYSLSSVVTVPSSSLGTQTYICNVNHKPSNTKVDKKVEPKSCDKTHTCPPCPAPEAAGGPSVFLFPPKPKDTLMISRTPEVTCVVVSVSHEDPEVKFNWYVDGVEVHNAKTKPREEQYNSTYRVVSVLTVLHQDWLNGKEYKCKVSNKALPAPIEKTISKAKGQPREPQVYTLPPSREEMTKNQVSLSCAVKGFYPSDIAVEWESNGQPENNYKTTPPVLDSDGSFFLVSKLTVDKSRWQQGNVFSCSVMHEALHNRFTQKSLSLSPGK
light: QTVVTQPPSVSEAPRQRVTISCSGSSSNIGNHGVNWYQQLPGKAPKLLIYNDDLLPSGVSDRFSGSTSGTSGSLAISGLQSEDEADYYCAAWDDSLNGVVFGGGTKLTVLGQPKAAPSVTLFPPSSEELQANKATLVCLISDFYPGAVTVAWKADSSPVKAGVETTTPSKQSNNKYAASSYLSLTPEQWKSHRSYSCQVTHEGSTVEKTVAPTECS
chain: EIVLTQSPATLSASPGERVTLSCSASSSVSYMNWYQQKPGQAPRRWIYDSSKLASGVPARFSGSGSGRDYTLTISSLEPEDFAVYYCQQWSRNPPTFGGGTKVEIKGGSEGKSSGSGSESKSTGGSQVQLVQSGAEVKKPGSSVKVSCKASGYTFTRSTMHWVKQAPGQGLEWIGYINPSSAYTNYNQKFQGRVTLTADKSTSTAYMELSSLRSEDTAVYYCASPQVHYDYAGFPYWGQGTLVTVSSEPKSSDKTHTCPPCPAPEAAGGPSVFLFPPKPKDTLMISRTPEVTCVVVSVSHEDPEVKFNWYVDGVEVHNAKTKPREEQYNSTYRVVSVLTVLHQDWLNGKEYKCKVSNKALPAPIEKTISKAKGQPREPQVYTLPPSREEMTKNQVSLWCLVKGFYPSDIAVEWESNGQPENNYKTTPPVLDSDGSFFLYSKLTVDKSRWQQGNVFSCSVMHEALHNHYTQKSLSLSPGKGGSEGKSSGSGSESKSTGGSAIQLTQSPSSLSASVGDRVTITCRASSSVSYIHWFQQKPGKAPKPLIYATSNLASGVPSRFSGSGSGTDFTLTISSLQPEDFATYYCQQWTSNPPTFGQGTKLEIKGGSEGKSSGSGSESKSTGGSQVQLVQSGAEVKKPGSSVKVSCKASGYTFTSYNMHWVRQAPGQGLEWMGAIYPGNGDTSYAQKFQGRVTITADKSTSTAYMELSSLRSEDTAVYYCARSTYYGGDWYFNVWGQGTLVTVSS
notes: Trispecific IgG1; also called CD9B330-N31S / CD3B2030-N106A-scFv-LH-C20B22

Tests used:
[1] = molecular target: T1, human CD20 on the cell surface; experiment: flow cytometry, human B cells
[2] = molecular target: T2, cynomolgus monkey CD20 on B cells; experiment: flow cytometry, cynomolgus B cells
[3] = molecular target: T3, human CD79b and CD20 co-expressed on …; experiment: cell-based or functional assay
[4] = molecular target: T3, human CD79b and CD20 co-expressed on …; experiment: cell-based or functional assay; remark: listed apart in the source
[5] = molecular target: T3, human CD79b and CD20 co-expressed on …; experiment: flow cytometry, HBL-1 cells (CD79b+ CD20+), 1 h 37 C
Description: (§1) All cells were washed with BD stain buffer (BD Biosciences; Cat #554657), centrifuged at 1200 RPM for 3 minutes, with supernatant discarded. Cells were then stained for 20 minutes at 4° C. with BD stain buffer containing AlexaFluor 647 labeled anti-human IgG secondary antibody (Jackson Immuno; Cat #109-606-098) at a 1:200 dilution along with Aqua Fixable Live/Dead stain (Invitrogen; Cat #L34957) at a 1:400 dilution. All cells were washed with BD stain buffer (BD Biosciences; Cat #554657), centrifuged at 1200 RPM for 3 mins, with supernatant discarded. Cells were analyzed using Intellicyt (Sartorius) flow cytometer and mean fluorescent intensity (MFI) was generated using Forcyt software (Sartorius). MFI was graphed and EC50 values generated using GraphPad PRISM v.8. Dose response curves were generated by transforming the x axis values using the formula […]. Data was then graphed using non-linear regression curve fit analysis “log(agonist) vs. response-variable slope (four parameter)”.

[6] = molecular target: T3, human CD79b and CD20 co-expressed on …; experiment: cell-based or functional assay; remark: listed apart in the source
[7] = molecular target: T3, human CD79b and CD20 co-expressed on …; experiment: cell-based or functional assay; remark: listed apart in the source
[8] = molecular target: T3, human CD79b and CD20 co-expressed on …; experiment: cell-based or functional assay; remark: listed apart in the source
[9] = molecular target: T6, cynomolgus monkey CD79b antigen (cynomolgus monkey); experiment: SPR Biacore 8k, cyno CD79b injected up to 3000 nM
T6 construct: also called cyno CD79b; CD9W1.001
How it was run: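 Antibodies captured on anti-human Fc C1 chip, CD79b extracellular domain injected in HBSP+ at 25 °C; association 2 or 3 min, dissociation 30 min. Double-referenced sensorgrams fitted to a 1:1 Langmuir model for on-rate, off-rate and affinity.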

[10] = molecular target: T3, human CD79b and CD20 co-expressed on …; experiment: flow cytometry, Carnaval cells (CD79b+ CD20+), 1 h 37 C
Description: as §1

[11] = molecular target: T3, human CD79b and CD20 co-expressed on …; experiment: cell-based or functional assay; remark: listed apart in the source
[12] = molecular target: T3, human CD79b and CD20 co-expressed on …; experiment: flow cytometry, OCI-LY10 cells (CD79b+ CD20+), 1 h 37 C
Description: as §1

[13] = molecular target: T4, recombinant extracellular domain of …; experiment: SPR Biacore 8k, antibody captured by anti-Fc, 25 C
Description: (§2) General Protocol for SPR Affinity Assessment: Affinity assessment of the bispecific trispecific constructs against human CD79b were measure using recombinantly expressed extracellular domain of CD79b short and long isoforms (CD9W7.001 and CD9W8.001, respectively) by Surface Plasmon Resonance (SPR) using a Biacore 8k SPR system (Biacore) at 25° C. in HBSP+ buffer. Cross-reactivity of the same antibody panel was also assessed against cyno and mouse antigens (CD9W1.001 and CD9W105.001, respectively). Briefly, a C1 sensor chip was immobilized with anti-human Fc (target immobilization levels of >400 RU) using vendor recommended amino coupling protocol. […] The association and dissociation phases were measured for 2 or 3 minutes and 30 minutes, respectively.
(§3) The raw binding sensorgrams were processed using Biacore Insight software (Biacore) by double-referencing and the processed sensorgrams were analyzed for cross-reactivity and fitted to a 1:1 Langmuir model to obtain on-rates, off-rates and affinities.

[14] = molecular target: T5, recombinant extracellular domain of …; experiment: SPR Biacore 8k, antibody captured by anti-Fc, 25 C
Description: as §2, §3

Binder	binding result [1]	binding result [2]	IC50, Daudi killing (Incucyte) [3]	IC50, CARNAVAL killing (Incucyte) [4]	EC50 [5]	IC50, T-cell killing of OCI-Ly10 (Incucyte) [6]	IC50, CARNAVAL killing, 72 h (FACS) [7]	IC50, HBL-1 killing, 72 h (FACS) [7]	IC50, OCI-LY10 killing, 72 h (FACS) [7]	IC50, T-cell killing of HBL-1 (Incucyte) [8]	Kd [9]	EC50 [10]	Cmax (maximum cytotoxicity), donor 1 [11]	Cmax (maximum cytotoxicity), donor 2 [11]	Cmax (maximum cytotoxicity), donor 3 [11]	EC50, autologous B-cell depletion, donor 1 [11]	EC50, autologous B-cell depletion, donor 2 [11]	EC50 [12]	Kd [13]	Kd [14]
B1	binds	binds																		
B2			0.1 nM	0.741 nM	52 nM	25.6 nM	0.35 nM	2.42 nM	24.2 nM	0.346 nM	> 3000 nM	23 nM	34%	66%	40%	78 nM	23 nM	66 nM	0.023 nM	0.39 nM
